The values below come from the supplement of paper PMC9170038.

The series relates to MS2 coat protein. In words: apparent KD of MS2 coat protein; designed switch direction (-1 OFF switch, 1 ON switch): 1; higher = weaker reporter binding. An outline of the steps:
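Transcription of designed RNA switches on Illumina chips was done by stalled E. coli RNA polymerase. SNAP-549-labelled MS2 coat protein was then titrated in doubling steps from 0.7 or 1.5 nM to 3 µM, with steps of 0.8–1.5 h at the lowest and 10–20 min at the highest concentration. The per-design median over clusters of curve-fitted normalised fluorescence is reported as apparent KD.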

[1] abbreviates: input ligand: microRNA oligo, concentration not stated.
Where [2] appears, read: Eterna round: R95, input ligand: FMN 200 uM.
Setting [3] is: Eterna round: R95, input ligand: microRNA oligo, concentration not stated.
Setting [4] is: Eterna round: R95, input ligand: none.

For “ACAUGAGACUUAGGAUAUGUUGUACCUACAUGUGACAUGAGGAUCACCCAUGUGGUAAGUAUGAGACAGAAGGAAGAGAUAUGU [Equivalence 29 - Jieux - Same State NG 2] (Eterna round: R96, puzzle: Same State NG 2)”, the “apparent KD of MS2 coat protein” value (input ligand: FMN 200 uM) came to 0.00753 µM, the “apparent KD of MS2 coat protein” value under setting [1] was 0.0263 µM and the “apparent KD of MS2 coat protein” value (input ligand: none) was determined as 0.0547 µM.

Consider “ACAUGAGACUUAGGAUAUGUUGUACCUACAUGUGACAUGAGGAUCACCCAUGUGGUAAGUAUGAGGCAGAAGGAAGAGAUAUGU [Equivalence 39 - Jieux - Same State NG 2] (Eterna round: R96, puzzle: Same State NG 2)”, for which the “apparent KD of MS2 coat protein” value (input ligand: FMN 200 uM) stood at 0.0235 µM, the “apparent KD of MS2 coat protein” value under setting [1] is 0.0459 µM and the “apparent KD of MS2 coat protein” value (input ligand: none) was 0.0731 µM.

“ACAUGAGAGAUAGGAUAUCAUGUACCUACAUGUGACAUGAGGAUCACCCAUGUGGUAAGUAUGAGUGAGAAGGAUCAGAUAUGU [Equivalence 35 - Jieux - Same State NG 2] (Eterna round: R96, puzzle: Same State NG 2)”: the “apparent KD of MS2 coat protein” value turned out to be 0.0479 µM (input ligand: FMN 200 uM), 0.272 µM under setting [1] and 0.467 µM (input ligand: none).

As for “ACAUGAGAGAUAGGAUAUCUUGUACCUACAUGUGACAUGAGGAUCACCCAUGUGGUAAGUAUGAGGGAGAAGGGUCAGAUAUGU [Equivalence 45 - Jieux - Same State NG 2] (Eterna round: R96, puzzle: Same State NG 2)”, under setting [1], the “apparent KD of MS2 coat protein” value came to 0.0427 µM.

Turning to “ACAUGAGAGAUAGGAUAUGCUGUACCUACAUGUGACAUGAGGAUCACCCAUGUGGUAAGUAUGAGGCAGAAGGAUCAGAUAUGU [Equivalence 49 - Jieux - Same State NG 2] (Eterna round: R96, puzzle: Same State NG 2)”, the “apparent KD of MS2 coat protein” value is, setting by setting: (input ligand: FMN 200 uM) 0.0136 µM; under setting [1], 0.0173 µM; (input ligand: none) 0.0232 µM.

On to “ACAUGAGAUCGAGGAUAUUUUGUACCUACAUGUGACAUGAGGAUCACCCAUGUGGUAAGUAUGAGAAAGAAGGCGAAGAUAUGU [Equivalence 16 - Jieux - Same State NG 2] (Eterna round: R96, puzzle: Same State NG 2)”, for which the “apparent KD of MS2 coat protein” value under setting [1] turned out to be 0.0293 µM.

On to “ACAUGAGGAUCACCCAUGUAACACCUGAAAAUAAAACGAACACAGGAUAUCCCAGCAUGACGCCGGGAGAAGGGUGAUCGAAGA [Quorer] (Eterna round: R96, puzzle: Same State NG 3)”, for which the “apparent KD of MS2 coat protein” value (input ligand: FMN 200 uM) was found to be 0.124 µM, the “apparent KD of MS2 coat protein” value under setting [1] was 0.118 µM and the “apparent KD of MS2 coat protein” value (input ligand: none) is 0.0528 µM.

Regarding “ACAUGAGGAUCACCCAUGUAACACCUGAAAAUAAAACGAACACAGGAUAUCCCGGCAAGACACCGGGAGAAGGGUGAUCGAAGA [Eresorbe] (Eterna round: R96, puzzle: Same State NG 3)”, the “apparent KD of MS2 coat protein” value by setting is: (input ligand: FMN 200 uM) 0.411 µM; under setting [1], 0.0136 µM; (input ligand: none) 0.0909 µM.

As to “ACAUGAGGAUCACCCAUGUCUUUAUCCGAUUCUUCAUUUACGUAGGAUAUCGUCUAUACUAUCAUCGAGAAGGACGUUCUUUAA [JR_SSNG3_Sub070] (Eterna round: R96, puzzle: Same State NG 3)”, the “apparent KD of MS2 coat protein” value under setting [1] was 0.0139 µM.

“ACGCCCUCAGUAGGAUAUGGGAAAGGAAGUGUACCAGAAGGACUGGUUGAACAUGAGGAUCACCCAUGUUCAACGACAGGGCAA [PowerStrip SSNG 1.20] (Eterna round: R96, puzzle: Same State NG 1)”: the “apparent KD of MS2 coat protein” value is, setting by setting: (input ligand: FMN 200 uM) 0.0186 µM; under setting [1], 0.0139 µM; (input ligand: none) 0.0186 µM.

Turning to “ACGCCUAAACGGCGAAAACGACAUGAGGAUCACCCAUGUACACAGGAUAUCAGCCUGCAACAGGCUGAGAAGGGUGAACCUAAA [Atatmadiar] (Eterna round: R96, puzzle: Same State NG 3)”, the “apparent KD of MS2 coat protein” value by setting is: (input ligand: FMN 200 uM) 0.711 µM; under setting [1], 0.0355 µM; (input ligand: none) 0.155 µM.

With “ACUCAGUACAAUUUAGAUCUACAUGAGGAUCACCCAUGUACUGAGGAUAUCAGCUCGUUUAGAGCUGAGAAGGCAGUUGUACUA [SSNG3/10-A3] (Eterna round: R96, puzzle: Same State NG 3)”, the “apparent KD of MS2 coat protein” value reads like this: (input ligand: FMN 200 uM) 0.108 µM; under setting [1], 0.221 µM; (input ligand: none) 0.311 µM.

On to “ACUCUCACAGUAGGAUAUGUAGGAUAUGCCUACAUGAGGAUCACCCAUGUAAACAUGGCAGAAGGAUAGAAGGACUGACAUGGG [pwkr ssNG2 2FMN + 1F5.3] (Eterna round: R96, puzzle: Same State NG 2)”, for which the “apparent KD of MS2 coat protein” value was 0.274 µM (input ligand: FMN 200 uM), 0.233 µM under setting [1] and 0.278 µM (input ligand: none).

Consider “AGAAAGAAACAUGAGGAUCACCCAUGUACAAGCUUUUUGCUCGUCUUAUUACAUGGGUUCAUGGGUGAUCGGGAUGU [Tim MacKenzie] (puzzle: Sensor for hsa-mir-208a version 2)”, for which the “apparent KD of MS2 coat protein” value reads like this: under setting [2], 0.0111 µM; under setting [3], 0.0131 µM; under setting [4], 0.0199 µM.

In the case of “AGAAGACAUGAGGAUCACCCAUGUCCCUCAUGCGUAGGAUAUAUAAGAAGAAAGAAAAGGAUAGAAGGACGAAAAG [Default title] (puzzle: Same State 1)”, the “apparent KD of MS2 coat protein” value reads like this: under setting [2], 0.0975 µM; under setting [3], 0.119 µM; under setting [4], 0.194 µM.

Consider “AGAGAAGAAGCUGAGGAUAUCGUAAGGAGGACAUGAGGAUCACCCAUGUGUGUGGAAUUGGAGGACGAGAAGGCAGAGGAGUGGG [JR_SS2_Sub056] (puzzle: Same State 2)”, for which the “apparent KD of MS2 coat protein” value is 0.0251 µM under setting [2], 0.0283 µM under setting [3] and 0.0278 µM under setting [4].

Regarding “AGAGGAGGAGCAGGAUAUGCGAAGAAGAACGAGGUAGAAGGGCUCAUGCGAUGACAUGAGGAUCACCCAUGUACCGCGCGAGGA [AK SSNG1-V2-8.2] (Eterna round: R96, puzzle: Same State NG 1)”, the “apparent KD of MS2 coat protein” value is, setting by setting: (input ligand: FMN 200 uM) 0.207 µM; under setting [1], 0.209 µM; (input ligand: none) 0.142 µM.

As to “AGAGGAGGCGCAGGAUAUACGACGGAGGACGUGGUAGAAGGGUGCAUGCGAUAACAUGAGGAUCACCCAUGUACCGCGCGACGA [AK SSNG1-V2-17] (Eterna round: R96, puzzle: Same State NG 1)”, the “apparent KD of MS2 coat protein” value was found to be 0.21 µM (input ligand: FMN 200 uM), 0.0302 µM under setting [1] and 0.198 µM (input ligand: none).

Turning to “AGAUAAGUCACAGGAUAUUCCUACAUUAAUAUGGAAGAAGGGUGAGCAUGAUUCGAUACAUGAGGAUCACCCAUGUAUCCGCGA [Eternabot solution 31] (Eterna round: R96, puzzle: Same State NG 1)”, the “apparent KD of MS2 coat protein” value under setting [1] came to 0.054 µM.

With “AGAUCAUGACGAGGAUAUCCGACAUGAGGAUCACCCAUGUAUGUCGGAGGACGCGUACGUCCAAUGGAGAAGGCGUCGUGGUCA [JL SSNG2 1.03] (Eterna round: R96, puzzle: Same State NG 2)”, the “apparent KD of MS2 coat protein” value was found to be 0.0182 µM (input ligand: FMN 200 uM), 0.0737 µM under setting [1] and 0.0825 µM (input ligand: none).

Regarding “AGAUCAUGACGAGGAUAUGGUACAUGAGGAUCACCCAUGUAUGUACCAUAAUUAGUAUUAGGAAACCAGAAGGCGUCGUGGUCA [JL SSNG2 1.18] (Eterna round: R96, puzzle: Same State NG 2)”, the “apparent KD of MS2 coat protein” value runs as follows: (input ligand: FMN 200 uM) 0.0101 µM; under setting [1], 0.0557 µM; (input ligand: none) 0.0854 µM.

On to “AGAUCAUGACGAGGAUAUGGUACAUGAGGAUCACCCAUGUAUGUACCAUAGCAACAGCUAGGAAACCAGAAGGCGUCGUGGUCA [jandersonlee JLSSNG2 1.18 Native F5 + F7] (Eterna round: R96, puzzle: Same State NG 2)”, for which the “apparent KD of MS2 coat protein” value (input ligand: FMN 200 uM) was 0.0136 µM, the “apparent KD of MS2 coat protein” value under setting [1] came out at 0.0156 µM and the “apparent KD of MS2 coat protein” value (input ligand: none) amounted to 0.0266 µM.

Regarding “AGAUCAUGACGAGGAUAUGGUACAUGAGGAUCACCCAUGUAUGUACUAUAAUUCGAAUGAGGAAUCCAGAAGGCGUCGUGGUCA [JL SSNG2 1.15] (Eterna round: R96, puzzle: Same State NG 2)”, the “apparent KD of MS2 coat protein” value by setting is: (input ligand: FMN 200 uM) 0.0153 µM; under setting [1], 0.0296 µM; (input ligand: none) 0.0554 µM.

Regarding “AGAUGUUAAUCAGGAUAUGGGCACAUGAGGAUCACCCAUGUAAAUUCGAUACUAUGUGGACACGUCUAGAAGGGAUGGCUAACA [SameState NG2 #83] (Eterna round: R96, puzzle: Same State NG 2)”, the “apparent KD of MS2 coat protein” value (input ligand: FMN 200 uM) came out at 0.125 µM, the “apparent KD of MS2 coat protein” value under setting [1] was determined as 0.0735 µM and the “apparent KD of MS2 coat protein” value (input ligand: none) was 0.106 µM.

As to “AGAUGUUAAUCAGGAUAUGGGCACAUGAGGAUCACCCAUGUAACGUAGAUACGAUGUGGUCAAGUCUAGAAGGGAUAGCUAACA [SameState NG2 #78] (Eterna round: R96, puzzle: Same State NG 2)”, the “apparent KD of MS2 coat protein” value by setting is: (input ligand: FMN 200 uM) 0.125 µM; under setting [1], 0.0607 µM; (input ligand: none) 0.0659 µM.

As for “AGCAAAGCGACAGGAUAUGGUAAGGAUCUCUUACCAGAAGGGUCAAGUGCAUGACAUGAGGAUCACCCAUGUAGGUUGUUUACC [Eternabot solution 44] (Eterna round: R96, puzzle: Same State NG 1)”, the “apparent KD of MS2 coat protein” value (input ligand: FMN 200 uM) worked out at 0.0182 µM, the “apparent KD of MS2 coat protein” value under setting [1] was 0.0185 µM and the “apparent KD of MS2 coat protein” value (input ligand: none) stood at 0.0265 µM.

Consider “AGCCGAGACACAGGAUAUAGAUAUCUACAUGAGGAUCACCCAUGUAGCAACACGUGGUAGUGAUACUAGAAGGGUGCUCGGCGC [Omei SS(NG)2 Cv9] (Eterna round: R96, puzzle: Same State NG 2)”, for which the “apparent KD of MS2 coat protein” value stood at 0.0203 µM (input ligand: FMN 200 uM), 0.06 µM under setting [1] and 0.0731 µM (input ligand: none).
